From PMC12852381 (2025)

Molecular target: DENV-2 Envelope protein (DENV E dimeric protein) (Dengue virus type 2; strain of the BLI …, UniProt P14340)
Experiment: BLI; Octet RED 96, 24 °C, 1,000 rpm; CR3022 (5 µg/ml) loaded on AHC (anti-hIgG Fc capture) sensors; DENV E dimeric protein diluted three-fold from 6,000 nM; 50 mM Tris, 150 mM NaCl, 0.5% glycerol, pH 8.0; global 1:1 fit
Settings: both partners purified

B1: CR3022, an antibody against the SARS-CoV-2 spike protein (antibody, V domains shown)
VH: EVQLVQSGTEVKKPGESLKISCKGSGYGFITYWIGWVRQMPGKGLEWMGIIYPGDSETRYSPSFQGQVTISADKSINTAYLQWSSLKASDTAIYYCAGGSGISTPMDVWGQGTTVTVSS
VL: not shown
- Kd: 2830 nM
